{
  "source": "paper PMC7503452",
  "binders": {"B1": {"name": "118-nt ssDNA (ssDNA)", "DNA": "GAATATAGTTTTTAGCTCAAAGTAAGTGAAGATAATTTAGAGAGTTGTAATGTGATATATGTGTATGAAAGATATAAGACTCAAAGTGAAAAGTTGTTAATGTGTGTAGATATGTTAA", "modifications": "internal fluorescein-dT at position 37"}},
  "assay_in_all_cases": "fluorescence anisotropy",
  "key": {"A3H Hap II": {"target": "A3H Hap II (human, UniProt Q6NTF7 1-181, G105R;K121D;E178D)", "sequence (Q6NTF7 1-181 G105R/K121D/E178D)": "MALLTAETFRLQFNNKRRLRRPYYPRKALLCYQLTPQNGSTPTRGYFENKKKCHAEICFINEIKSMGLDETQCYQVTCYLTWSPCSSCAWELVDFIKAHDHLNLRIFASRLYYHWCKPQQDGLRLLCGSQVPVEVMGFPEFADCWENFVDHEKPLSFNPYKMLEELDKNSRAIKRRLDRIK"}, "A3H Hap I K117E/K121E": {"target": "A3H Hap I K117E/K121E (human, UniProt Q6NTF7 1-200, K117E;K121E)", "sequence (Q6NTF7 whole entry K117E/K121E)": "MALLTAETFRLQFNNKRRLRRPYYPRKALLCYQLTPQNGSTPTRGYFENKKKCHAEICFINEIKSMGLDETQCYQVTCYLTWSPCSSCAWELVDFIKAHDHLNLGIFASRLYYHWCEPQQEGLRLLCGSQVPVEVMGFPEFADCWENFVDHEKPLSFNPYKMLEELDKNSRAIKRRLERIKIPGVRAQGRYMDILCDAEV"}, "A3H Hap I K117E": {"target": "A3H Hap I K117E (human, UniProt Q6NTF7 1-200, K117E)", "sequence (Q6NTF7 whole entry K117E)": "as the sequence (Q6NTF7 whole entry K117E/K121E) above, with E121K counted along it"}, "A3H Hap VII": {"target": "A3H Hap VII (human, UniProt Q6NTF7 1-200, G105R)", "sequence (Q6NTF7 whole entry G105R)": "as the sequence (Q6NTF7 whole entry K117E/K121E) above, with G105R, E117K, E121K counted along it"}},
  "data": [
    {"binder": "B1", "values": [
      {"measurement": "Kd", "setting": "A3H Hap II", "result": "492 ± 28", "unit": "nM"},
      {"measurement": "Kd", "setting": "A3H Hap I K117E/K121E", "result": "1240 ± 88", "unit": "nM"},
      {"measurement": "Kd", "setting": "A3H Hap I K117E", "result": "3000 ± 1770", "unit": "nM"},
      {"measurement": "Kd", "setting": "A3H Hap VII", "result": "522 ± 4", "unit": "nM"}
    ]}
  ]
}
